This note sets out measurements from paper PMC8346517, “The intervening domain is required for DNA-binding and functional identity of plant MADS transcription factors” (Nature Communications, 2021).

The data set deals with the molecule itself. Nature of the data set: crystal structure; SEP3 MI at 6 mg/ml, without DNA; 0.2 M potassium sodium tartrate, 0.1 M bis-tris propane pH 7.5, 20% PEG 3350, 4 °C; space group C222(1), dimers formed by crystallographic symmetry.

B1: SEP3^MI (MADS-box and I domain of …3, residues 1-90) (domain or fragment)
chain: not shown
notes: His6-MBP fusion from the vector pETM41, cleaved with TEV protease; residues 1-18 and the 17 C-terminal residues are disordered in the crystal; also called SEP3 MI domain; source: E. coli BL21 Codon Plus, purified (Ni-NTA, heparin, TEV cleavage, Ni-NTA, heparin)
B1: the binding result was “binds”.
